Several values for one entry are separate records, joined by “and”; a condition that tells them apart may be missing. Equal entries are not always repeated.
Conditions: Mus musculus, pH 7.4, 20 °C, Urea, Tris-HCl 20 mM, whole UniProt chain shown

B1: Adenosine deaminase wild type, P03958 (protein)
chain: MAQTPAFNKPKVELHVHLDGAIKPETILYFGKKRGIALPADTVEELRNIIGMDKPLSLPGFLAKFDYYMPVIAGCREAIKRIAYEFVEMKAKEGVVYVEVRYSPHLLANSKVDPMPWNQTEGDVTPDDVVDLVNQGLQEGEQAFGIKVRSILCCMRHQPSWSLEVLELCKKYNQKTVVAMDLAGDETIEGSSLFPGHVEAYEGAVKNGIHRTVHAGEVGSPEVVREAVDILKTERVGHGYHTIEDEALYNRLLKENMHFEVCPWSSYLTGAWDPKTTHAVVRFKNDKANYSLNTDDPLIFKSTLDTDYQMTKKDMGFTEEEFKRLNINAAKSSFLPEEEKKELLERLYREYQ
For B1, the denaturant m value (CD) was 0.89 kcal/mol/M and 0.77 kcal/mol/M, the “denaturant midpoint (higher = more stable)” value (CD) was 6.15 M and 5.77 M and the unfolding free energy (CD) was 5.47 kcal/mol and 4.44 kcal/mol. For the same protein, the denaturant m value (Fluorescence) was 0.85 kcal/mol/M, the “denaturant midpoint (higher = more stable)” value (Fluorescence) was 6.08 M and 5.73 M and the unfolding free energy (Fluorescence) was 5.17 kcal/mol and 4.87 kcal/mol.
